# B1: MEKK1 cleavage fragment C (protein)
# chain: GHQDSLQAVAPTSCLENSSLEHTVHREKTGKGLSATRLSASSEDISDRLAGVSVGLPSSTTTEQPKPAVQTKGRPHSQCLNSSPLSHAQLMFPAPSAPCSSAPSVPDISKHRPQAFVPCKIPSASPQTQRKFSLQFQRNCSEHRDSDQLSPVFTQSRPPPSSNIHRPKPSRPVPGSTSKLGDATKSSMTLDLGSASRCDDSFGGGGNSGNAVIPSDETVFTPVEDKCRLDVNTELNSSIEDLLEASMPSSDTTVTFKSEVAVLSPEKAENDDTYKDDVNHNQKCKEKMEAEEEEALAIAMAMSASQDALPIVPQLQVENGEDIIIIQQDTPETLPGHTKAKQPYREDAEWLKGQQIGLGAFSSCYQAQDVGTGTLMAVKQVTYVRNTSSEQEEVVEALREEIRMMGHLNHPNIIRMLGATCEKSNYNLFIEWMAGGSVAHLLSKYGAFKESVVINYTEQLLRGLSYLHENQIIHRDVKGANLLIDSTGQRLRIADFGAAARLASKGTGAGEFQGQLLGTIAFMAPEVLRGQQYGRSCDVWSVGCAIIEMACAKPPWNAEKHSNHLALIFKIASATTAPSIPSHLSPGLRDVAVRCLELQPQDRPPSRELLKHPVFRTTW
# B2: HA-tagged full length mouse MEKK1 (196 kDa; plasmid MEKK1.cp4, expressed in HEK293 cells) (protein)
# chain: MGYPYDVDYASMAAAAGDRASSSGFPGAAAASPEAGGGGGGGGALQGSGAPAAGAAGLLREPGSAGRERADWRRRQLRKVRSVELDQLPEQPLFLAAASPPCPSTSPSPEPADAAAGASRFQPAAGPPPPGAASRCGSHSAELAAARDSGARSPAGAEPPSAAAPSGREMENKETLKGLHKMEDRPEERMIREKLKATCMPAWKHEWLERRNRRGPVVVKPIPIKGDGSEVNNLAAEPQGEGQAGSAAPAPKGRRSPSPGSSPSGRSVKPESPGVRRKRVSPVPFQSGRITPPRRAPSPDGFSPYSPEETSRRVNKVMRARLYLLQQIGPNSFLIGGDSPDNKYRVFIGPQNCSCGRGAFCIHLLFVMLRVFQLEPSDPMLWRKTLKNFEVESLFQKYHSRRSSRIKAPSRNTIQKFVSRMSNSHTLSSSSTSTSSSENSIKDEEEQMCPICLLGMLDEESLTVCEDGCRNKLHHHCMSIWAEECRRNREPLICPLCRSKWRSHDFYSHELSSPVESPASLRAVQQPSSPQQPVAGSQRRNQESSFNLTHFGTQQIPSAYKDLAEPWIQVFGMELVGCLFSRNWNVREMALRRLSHDVSGALLLANGESTGNSGGGSGGSLSAGAASGSSQPSISGDVVEACCSVLSIVCADPVYKVYVAALKTLRAMLVYTPCHSLAERIKLQRLLRPVVDTILVKCADANSRTSQLSISTVLELCKGQAGELAVGREILKAGSIGVGGVDYVLSCILGNQAESNNWQELLGRLCLIDRLLLEFPAEFYPHIVSTDVSQAEPVEIRYKKLLSLLTFALQSIDNSHSMVGKLSRRIYLSSARMVTAVPAVFSKLVTMLNASGSTHFTRMRRRLMAIADEVEIAEVIQLGVEDTVDGHQDSLQAVAPTSCLENSSLEHTVHREKTGKGLSATRLSASSEDISDRLAGVSVGLPSSTTTEQPKPAVQTKGRPHSQCLNSSPLSHAQLMFPAPSAPCSSAPSVPDISKHRPQAFVPCKIPSASPQTQRKFSLQFQRNCSEHRDSDQLSPVFTQSRPPPSSNIHRPKPSRPVPGSTSKLGDATKSSMTLDLGSASRCDDSFGGGGNSGNAVIPSDETVFTPVEDKCRLDVNTELNSSIEDLLEASMPSSDTTVTFKSEVAVLSPEKAENDDTYKDDVNHNQKCKEKMEAEEEEALAIAMAMSASQDALPIVPQLQVENGEDIIIIQQDTPETLPGHTKAKQPYREDAEWLKGQQIGLGAFSSCYQAQDVGTGTLMAVKQVTYVRNTSSEQEEVVEALREEIRMMGHLNHPNIIRMLGATCEKSNYNLFIEWMAGGSVAHLLSKYGAFKESVVINYTEQLLRGLSYLHENQIIHRDVKGANLLIDSTGQRLRIADFGAAARLASKGTGAGEFQGQLLGTIAFMAPEVLRGQQYGRSCDVWSVGCAIIEMACAKPPWNAEKHSNHLALIFKIASATTAPSIPSHLSPGLRDVAVRCLELQPQDRPPSRELLKHPVFRTTW
# Target: recombinant kinase inactive SEK1 (SEK1 K→M)
row,Protein,phosphorylation of SEK1 K→M by immunoprecipitates (in vitro kinase assay)
1,B1,a stronger SEK1 phosphorylation signal was detected
2,B2,When the full length MEKK1 protein was immunoprecipitated by the 12CA5 antibody it had measureable autophosphorylation and activity towards SEK1

# — patent US20020055130
